Test results from the supplement of paper PMC10065799, “High-throughput profiling of sequence recognition by tyrosine kinases and SH2 domains using bacterial peptide display” (eLife, 2023).
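Further: 11-residue human phosphosite peptides and single-mutation variants displayed on the E. coli surface, counted by deep sequencing, each peptide's frequency after selection divided by its frequency in the unselected input library; frequency after pTyr selection over input frequency; kinase dosed for 20-30% of maximal phosphorylation in three min.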

Each sequence was assayed against Hck (UniProt P08631) (assay: phosphorylation enrichment, bacterial display (enrichment ratio); higher = better substrate or ligand; peptides without Tyr show the background).
Hck, sequence (P08631 whole entry, looked up): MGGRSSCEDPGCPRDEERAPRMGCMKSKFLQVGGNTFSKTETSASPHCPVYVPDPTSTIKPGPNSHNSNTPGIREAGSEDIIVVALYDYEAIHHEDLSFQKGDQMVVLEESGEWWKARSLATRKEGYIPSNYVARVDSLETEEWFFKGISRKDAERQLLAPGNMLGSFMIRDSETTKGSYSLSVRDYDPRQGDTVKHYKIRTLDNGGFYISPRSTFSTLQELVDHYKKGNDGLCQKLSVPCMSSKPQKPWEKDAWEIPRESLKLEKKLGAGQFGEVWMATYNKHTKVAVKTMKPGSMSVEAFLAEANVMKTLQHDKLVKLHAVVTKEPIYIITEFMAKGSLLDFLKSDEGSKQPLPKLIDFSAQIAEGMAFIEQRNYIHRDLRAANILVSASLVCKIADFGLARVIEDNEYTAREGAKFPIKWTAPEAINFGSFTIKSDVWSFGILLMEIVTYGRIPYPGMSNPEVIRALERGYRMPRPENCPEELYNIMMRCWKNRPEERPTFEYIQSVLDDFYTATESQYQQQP
KVMANYVFKAG [MAML2_Y513_M514V_YF] gave a phosphorylation enrichment of 0.435. WGLCSYYETSK [MAGED2_Y448_R446C] showed a phosphorylation enrichment of 0.58. KDIENHIQDGK [RAD50_Y964_Y964H] was tested, and the phosphorylation enrichment was 0.463. FHKALYTVRTY [PDE6C_Y266_S270T] was tested, and the phosphorylation enrichment was 0.725. For RHRSGYVLIAM [EFR3A_Y73], the phosphorylation enrichment was 0.638. AVNDFYAAKKT [CCDC178_Y422] showed a phosphorylation enrichment of 0.5. Sequence HSFQCYGQNEA [ENTPD3_Y262_R264Q] has a phosphorylation enrichment of 0.701. For HSVVQYVGGVM [FGGY_Y136_L134V], the phosphorylation enrichment was 0.609. Work on KQINDYVEKGT [SERPINA1_Y184] yielded a phosphorylation enrichment of 0.433. With HNLPIYEGFAL [ACTA1_Y168_V165L_YF] the phosphorylation enrichment was 12.8. KEDSAYGSQSV [NFKB2_Y868] was tested, and the phosphorylation enrichment was 0.583. YSNVLYRPRGA [TMIGD2_Y197] showed a phosphorylation enrichment of 0.651. RELGEYALAEY [ALDH1A3_Y492] gave a phosphorylation enrichment of 0.765. In the case of YTGSTYRVGDT [FN1_Y106_N104S], the phosphorylation enrichment is reported as 0.529. GHLYAYNWISI [BEST1_Y227_D228N] was tested, and the phosphorylation enrichment was 1.24. In the case of DYYDLYGGEKK [PTPN11_Y66_F71K], the phosphorylation enrichment is reported as 4.06. PPSGEYFGQCG [TRIP6_Y275] gave a phosphorylation enrichment of 0.764. With LFLACYFIGGG [UBD_Y161_C162F] the phosphorylation enrichment was 0.55. For IENKLYGTSDP [RET_Y1062_M1064T], the phosphorylation enrichment was 0.553. REEKNYKLKET [BCLAF1_Y459] gave a phosphorylation enrichment of 0.861. LYDPDFMKVIL [CYP4A22_Y104_Y104F] showed a phosphorylation enrichment of 0.634. FGLDRYQCDCT [PTGS1_Y54] gave a phosphorylation enrichment of 0.499. In the case of QMVDMYASSYM [AVPR2_Y124_G122D], the phosphorylation enrichment is reported as 1.58. EKIANYKEGTY [CLRN1_Y171] showed a phosphorylation enrichment of 0.489. With HSLHDYKEALM [ADA2_Y337] the phosphorylation enrichment was 0.342. TQPSPYAVYLF [RPGRIP1_Y823_R827L] was tested, and the phosphorylation enrichment was 3.73. FADIAYNYRHA [PAH_Y166_G171A] was tested, and the phosphorylation enrichment was 0.415. Sequence LREIRYQGGNR [VWF_Y1570_V1565L] has a phosphorylation enrichment of 0.469. In the case of VGIMLYGVDSR [PKD1_Y3143], the phosphorylation enrichment is reported as 0.61. In the case of THPFLYLSLEI [MLH1_Y293], the phosphorylation enrichment is reported as 0.516. RELGEYGLQAY [ALDH2_Y497] gave a phosphorylation enrichment of 0.824. VPEANYTSDEE [STK33_Y439_D436E] gave a phosphorylation enrichment of 0.576. Sequence TKLKDYFIFNK [CCDC42_Y149_A144T_YF] has a phosphorylation enrichment of 0.42.

These sequences were tested against Jak2 (UniProt O60674) in the same assay as above.
Jak2, sequence (O60674 whole entry, looked up): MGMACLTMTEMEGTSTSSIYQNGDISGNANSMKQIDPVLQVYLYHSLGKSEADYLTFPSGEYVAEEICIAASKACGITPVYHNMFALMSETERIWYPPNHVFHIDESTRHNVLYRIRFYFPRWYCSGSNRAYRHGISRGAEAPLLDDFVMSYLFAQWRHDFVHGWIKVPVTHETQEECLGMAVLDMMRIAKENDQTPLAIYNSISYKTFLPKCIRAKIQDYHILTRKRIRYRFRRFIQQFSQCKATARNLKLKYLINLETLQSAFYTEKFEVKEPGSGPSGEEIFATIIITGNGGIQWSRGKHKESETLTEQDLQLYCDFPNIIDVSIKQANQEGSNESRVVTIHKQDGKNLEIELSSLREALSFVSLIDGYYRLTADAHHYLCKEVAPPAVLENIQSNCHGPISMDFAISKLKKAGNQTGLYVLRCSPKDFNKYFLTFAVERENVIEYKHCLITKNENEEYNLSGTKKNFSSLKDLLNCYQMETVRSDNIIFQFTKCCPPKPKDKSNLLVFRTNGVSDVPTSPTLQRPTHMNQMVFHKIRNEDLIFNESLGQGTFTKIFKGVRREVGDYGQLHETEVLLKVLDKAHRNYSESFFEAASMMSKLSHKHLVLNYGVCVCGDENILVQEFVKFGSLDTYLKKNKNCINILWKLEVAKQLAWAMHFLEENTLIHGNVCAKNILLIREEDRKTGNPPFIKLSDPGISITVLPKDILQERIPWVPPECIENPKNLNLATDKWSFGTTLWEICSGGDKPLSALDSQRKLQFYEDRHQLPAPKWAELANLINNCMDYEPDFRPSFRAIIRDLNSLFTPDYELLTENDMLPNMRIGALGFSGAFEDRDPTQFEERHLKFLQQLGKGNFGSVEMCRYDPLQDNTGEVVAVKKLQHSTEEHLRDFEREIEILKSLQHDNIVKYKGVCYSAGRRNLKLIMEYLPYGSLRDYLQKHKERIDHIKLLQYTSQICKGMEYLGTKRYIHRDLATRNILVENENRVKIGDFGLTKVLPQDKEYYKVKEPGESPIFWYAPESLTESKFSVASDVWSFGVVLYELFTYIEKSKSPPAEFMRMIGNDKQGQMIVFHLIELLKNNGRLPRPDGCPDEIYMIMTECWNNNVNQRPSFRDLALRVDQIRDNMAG
For KVMANYVFKAG [MAML2_Y513_M514V_YF], the phosphorylation enrichment was 0.564. Work on WGLCSYYETSK [MAGED2_Y448_R446C] yielded a phosphorylation enrichment of 1.35. Work on KDIENHIQDGK [RAD50_Y964_Y964H] yielded a phosphorylation enrichment of 0.621. FHKALYTVRTY [PDE6C_Y266_S270T] gave a phosphorylation enrichment of 1.16. In the case of RHRSGYVLIAM [EFR3A_Y73], the phosphorylation enrichment is reported as 0.79. For AVNDFYAAKKT [CCDC178_Y422], the phosphorylation enrichment was 0.548. Sequence HSFQCYGQNEA [ENTPD3_Y262_R264Q] has a phosphorylation enrichment of 1.21. Sequence HSVVQYVGGVM [FGGY_Y136_L134V] has a phosphorylation enrichment of 0.726. With KQINDYVEKGT [SERPINA1_Y184] the phosphorylation enrichment was 0.72. HNLPIYEGFAL [ACTA1_Y168_V165L_YF] showed a phosphorylation enrichment of 0.996. With KEDSAYGSQSV [NFKB2_Y868] the phosphorylation enrichment was 1.11. YSNVLYRPRGA [TMIGD2_Y197] was tested, and the phosphorylation enrichment was 0.596. In the case of RELGEYALAEY [ALDH1A3_Y492], the phosphorylation enrichment is reported as 1.81. In the case of YTGSTYRVGDT [FN1_Y106_N104S], the phosphorylation enrichment is reported as 0.715. For GHLYAYNWISI [BEST1_Y227_D228N], the phosphorylation enrichment was 1.33. Work on DYYDLYGGEKK [PTPN11_Y66_F71K] yielded a phosphorylation enrichment of 2.36. Sequence PPSGEYFGQCG [TRIP6_Y275] has a phosphorylation enrichment of 1.52. Sequence LFLACYFIGGG [UBD_Y161_C162F] has a phosphorylation enrichment of 1.35. IENKLYGTSDP [RET_Y1062_M1064T] showed a phosphorylation enrichment of 0.817. REEKNYKLKET [BCLAF1_Y459] showed a phosphorylation enrichment of 1.5. Work on LYDPDFMKVIL [CYP4A22_Y104_Y104F] yielded a phosphorylation enrichment of 1.39. Sequence FGLDRYQCDCT [PTGS1_Y54] has a phosphorylation enrichment of 0.874. With QMVDMYASSYM [AVPR2_Y124_G122D] the phosphorylation enrichment was 0.905. In the case of EKIANYKEGTY [CLRN1_Y171], the phosphorylation enrichment is reported as 0.654. Work on HSLHDYKEALM [ADA2_Y337] yielded a phosphorylation enrichment of 0.696. Work on TQPSPYAVYLF [RPGRIP1_Y823_R827L] yielded a phosphorylation enrichment of 1.01. FADIAYNYRHA [PAH_Y166_G171A] gave a phosphorylation enrichment of 0.648. LREIRYQGGNR [VWF_Y1570_V1565L] gave a phosphorylation enrichment of 0.643. Sequence VGIMLYGVDSR [PKD1_Y3143] has a phosphorylation enrichment of 1.05. THPFLYLSLEI [MLH1_Y293] showed a phosphorylation enrichment of 1.4. RELGEYGLQAY [ALDH2_Y497] was tested, and the phosphorylation enrichment was 1.32. VPEANYTSDEE [STK33_Y439_D436E] was tested, and the phosphorylation enrichment was 1.99. Sequence TKLKDYFIFNK [CCDC42_Y149_A144T_YF] has a phosphorylation enrichment of 0.702.
